Drawing on patent US5821118, this text covers IC50 value (nM), inhibition of farnesylation of Ras protein for three substances.

The target in assay [1] is bovine brain farnesyl-protein transferase (bovine) (UniProt P29702).
Assay [2] deals with human farnesyl-protein transferase, recombinant, expressed in E. coli from pRD516 with a C-terminal Glu-Glu-Phe epitope tag on the β subunit (human).

For the substance “tetrapeptide CIFM (cysteinylisolleucinyl-phenylalaninyl-methionine)”, the IC50 value (nM), inhibition of farnesylation of Ras protein in assay [1] was found to be 10 nM; in assay [2] it was 17 nM.
Take “tetrapeptide CVIL (cysteinylvalinyl-isolleucinyl-leucine)”: the IC50 value (nM), inhibition of farnesylation of Ras protein stood at 20000 nM in assay [1] and 6200 nM in assay [2].
On the same counts, the results for “tetrapeptide CVIM (cysteinylvalinyl-isolleucinyl-methionine)” are 100 nM and 100 nM.
